Assay results reported in publication PMC6853987, “ClpP protease activation results from the reorganization of the electrostatic interaction networks at the entrance pores” (Communications Biology, 2019).

Key:
[1] = target: the molecule itself; assay: crystal structure; EcClpP 10 mg/mL in 10 mM HEPES pH 7.5, 200 mM NaCl with 5 mM ACP1-06; well 51-63% MPD, 0.1 M sodium acetate pH 5.0, room temperature; self-association (tetradecamer)
[2] = target: the molecule itself; assay: crystal structure; apo-NmClpP 5 mg/mL in 25 mM TrisHCl pH 7.5, 100 mM KCl; well 0.2 M potassium thiocyanate, 40% MPD, room temperature; self-association (tetradecamer)

B1: Escherichia coli ClpP (EcClpP), wild type (enzyme)
chain: not shown
notes: ClpP protease proteolytic subunit, E. coli; Crystallised with the small molecule ACP1-06; An unexplained density extends from S111 in the structure (possible covalent modification, not identified); also called E. coli ClpP; caseinolytic protease P; copies: 14
stoichiometry N [1]: 14

B2: Neisseria meningitidis ClpP (NmClpP), wild type (enzyme)
chain: not shown
notes: ClpP, N. meningitidis MC58; expressed full length with N-terminal His6 tag and TEV site; also called apo-NmClpP; WT NmClpP; not shown: His6, N-terminal, cleaved; copies: 14
stoichiometry N [2]: 14
